This note sets out measurements from paper PMC10814836.

The target in the assay is lamin A/C (human (endogenous in primary myoblasts)) (UniProt P02545). Put plainly: proximity ligation; in situ PLA (Duolink) on methanol-fixed human myoblasts after uniaxial cyclic stretching (10% strain, 1 Hz, 4 h); anti-lamin A/C with anti-desmin or anti-plectin 1; 100 nuclei counted per replicate.
UniProt P02545, sequence (P02545 1-646): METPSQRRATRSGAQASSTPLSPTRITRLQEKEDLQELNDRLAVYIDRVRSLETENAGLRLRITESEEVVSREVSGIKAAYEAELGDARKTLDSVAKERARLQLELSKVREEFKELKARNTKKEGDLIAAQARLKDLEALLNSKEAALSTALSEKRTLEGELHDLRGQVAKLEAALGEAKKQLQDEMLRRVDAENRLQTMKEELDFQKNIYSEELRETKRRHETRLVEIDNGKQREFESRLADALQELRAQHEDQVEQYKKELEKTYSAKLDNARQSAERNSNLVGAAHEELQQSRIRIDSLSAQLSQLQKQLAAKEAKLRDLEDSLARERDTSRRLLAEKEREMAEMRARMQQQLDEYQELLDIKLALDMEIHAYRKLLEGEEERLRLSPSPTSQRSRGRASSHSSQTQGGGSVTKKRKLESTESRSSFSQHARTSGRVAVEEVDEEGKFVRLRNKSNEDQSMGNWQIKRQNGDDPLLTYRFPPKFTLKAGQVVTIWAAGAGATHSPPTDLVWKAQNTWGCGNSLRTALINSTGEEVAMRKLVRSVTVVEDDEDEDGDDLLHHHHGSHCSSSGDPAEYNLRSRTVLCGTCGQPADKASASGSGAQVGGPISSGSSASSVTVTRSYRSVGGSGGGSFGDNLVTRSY

Regarding plectin 1 (natural protein), the increase of PLA signal relative to non-stimulated cells was 64%.
